Test results published in patent publication US20160185837A1 (Medimmune Limited, priority 2013, published 2016).
Changes are numbered by the printed parent chain.

T1: rat GIP receptor (rGIPr) (Rattus norvegicus, UniProt P43219)
T1 construct: expressed in transfected cells; host or cells: HEK293s or CHO cells
T1 sequence (P43219 19-455): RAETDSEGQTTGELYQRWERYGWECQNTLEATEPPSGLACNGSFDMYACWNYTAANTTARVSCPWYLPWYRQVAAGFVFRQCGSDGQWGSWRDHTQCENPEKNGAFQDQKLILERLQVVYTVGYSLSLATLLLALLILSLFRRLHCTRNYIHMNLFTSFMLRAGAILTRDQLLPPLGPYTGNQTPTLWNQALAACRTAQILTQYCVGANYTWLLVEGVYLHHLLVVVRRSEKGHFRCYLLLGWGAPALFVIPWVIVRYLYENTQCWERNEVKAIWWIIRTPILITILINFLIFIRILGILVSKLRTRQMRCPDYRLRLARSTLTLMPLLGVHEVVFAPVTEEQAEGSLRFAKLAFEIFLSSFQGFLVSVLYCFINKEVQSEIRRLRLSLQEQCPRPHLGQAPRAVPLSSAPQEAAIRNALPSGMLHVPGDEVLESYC

T2: rat GLP-1 receptor (rGLP-1r) (Rattus norvegicus, UniProt P32301)
T2 construct: expressed in transfected cells; host or cells: HEK293s or CHO cells
T2 sequence (P32301 22-463): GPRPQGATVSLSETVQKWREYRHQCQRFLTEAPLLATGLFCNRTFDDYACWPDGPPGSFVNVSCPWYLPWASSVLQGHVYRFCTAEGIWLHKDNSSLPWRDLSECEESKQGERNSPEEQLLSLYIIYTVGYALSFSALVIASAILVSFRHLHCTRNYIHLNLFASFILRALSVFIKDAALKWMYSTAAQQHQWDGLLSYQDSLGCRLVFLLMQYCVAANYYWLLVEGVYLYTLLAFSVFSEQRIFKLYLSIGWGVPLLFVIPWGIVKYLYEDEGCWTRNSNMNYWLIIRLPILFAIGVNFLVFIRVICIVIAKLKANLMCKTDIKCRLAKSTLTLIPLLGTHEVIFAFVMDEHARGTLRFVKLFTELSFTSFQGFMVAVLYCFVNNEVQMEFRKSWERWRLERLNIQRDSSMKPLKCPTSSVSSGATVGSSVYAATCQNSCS

T3: mouse GIP receptor (mGIPr) (Mus musculus, UniProt Q0P543)
T3 construct: expressed in transfected cells; host or cells: HEK293s or CHO cells
T3 sequence (Q0P543 19-460): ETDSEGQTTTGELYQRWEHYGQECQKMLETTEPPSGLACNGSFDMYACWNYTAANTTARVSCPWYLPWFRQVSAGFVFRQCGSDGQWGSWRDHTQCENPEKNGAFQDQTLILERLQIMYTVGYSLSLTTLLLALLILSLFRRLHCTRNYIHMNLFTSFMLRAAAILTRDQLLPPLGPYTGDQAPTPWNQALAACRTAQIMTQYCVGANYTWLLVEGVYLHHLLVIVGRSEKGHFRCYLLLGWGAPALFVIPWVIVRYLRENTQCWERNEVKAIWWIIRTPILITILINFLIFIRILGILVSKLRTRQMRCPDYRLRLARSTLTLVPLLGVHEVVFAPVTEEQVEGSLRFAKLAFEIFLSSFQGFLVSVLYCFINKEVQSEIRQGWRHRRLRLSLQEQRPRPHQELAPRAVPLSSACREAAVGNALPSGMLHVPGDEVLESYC

T4: mouse GLP-1 receptor (mGLP-1r) (Mus musculus, UniProt O35659)
T4 construct: expressed in transfected cells; host or cells: HEK293s or CHO cells
T4 sequence (O35659 22-463): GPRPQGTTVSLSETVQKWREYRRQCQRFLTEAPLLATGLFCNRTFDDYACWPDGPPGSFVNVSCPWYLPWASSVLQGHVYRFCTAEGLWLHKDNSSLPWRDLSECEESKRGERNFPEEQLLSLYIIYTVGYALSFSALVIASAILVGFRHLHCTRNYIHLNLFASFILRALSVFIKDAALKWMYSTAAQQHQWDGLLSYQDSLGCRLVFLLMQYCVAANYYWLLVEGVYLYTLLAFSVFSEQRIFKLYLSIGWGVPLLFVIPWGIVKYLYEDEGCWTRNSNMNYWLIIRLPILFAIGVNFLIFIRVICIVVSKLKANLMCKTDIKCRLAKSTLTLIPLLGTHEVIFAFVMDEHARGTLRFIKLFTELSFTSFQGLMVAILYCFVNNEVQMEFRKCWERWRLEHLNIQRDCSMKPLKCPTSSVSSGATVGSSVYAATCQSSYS

T5: human GIP receptor (hGIPr) (Homo sapiens, UniProt P48546)
T5 construct: expressed in transfected cells
T5 sequence (P48546 22-466): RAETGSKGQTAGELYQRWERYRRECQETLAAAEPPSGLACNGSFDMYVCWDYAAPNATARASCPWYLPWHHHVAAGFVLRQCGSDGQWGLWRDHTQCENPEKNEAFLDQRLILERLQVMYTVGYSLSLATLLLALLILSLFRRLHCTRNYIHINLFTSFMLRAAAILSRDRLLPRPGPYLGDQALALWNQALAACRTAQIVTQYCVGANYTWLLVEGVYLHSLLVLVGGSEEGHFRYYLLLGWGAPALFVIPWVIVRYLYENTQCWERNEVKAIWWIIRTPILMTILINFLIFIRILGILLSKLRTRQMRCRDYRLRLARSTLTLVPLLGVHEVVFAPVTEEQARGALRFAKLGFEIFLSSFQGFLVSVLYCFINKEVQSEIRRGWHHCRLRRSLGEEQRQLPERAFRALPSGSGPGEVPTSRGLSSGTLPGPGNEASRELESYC

B1: IP246: Fc fusion, IgG1-TM, SEQ ID NO:116; agonist peptide YSEGTFTSDYSKLLEGQAAKLFIEWLVKGP (protein)
chain: YSEGTFTSDYSKLLEGQAAKLFIEWLVKGPAAAGGSGSTASSGSGSATGGGGAATHTCPPCPAPEF
modifications: also: Fc fusion, IgG1-TM
notes: agonist peptide YSEGTFTSDYSKLLEGQAAKLFIEWLVKGP
B2: IP247: Fc fusion, IgG1-TM, SEQ ID NO:117; agonist peptide YSEGTFTSDYSKLLEKIHQQLFIEWLVKGP (protein)
chain: B1 chain with G16K, Q17I, A18H, A19Q, K20Q
modifications: also: Fc fusion, IgG1-TM
notes: agonist peptide YSEGTFTSDYSKLLEKIHQQLFIEWLVKGP
B3: IP351 (protein)
chain: YSEGTFISDYSIAMDKIHQQDFVNWLLAQKPSSGAPPPSGGGGSGGGGSGGGGSGGGGSACPPC
B4: IP376 (protein)
chain: YSEGTFTSLFSKLLERQAIDEFIAWLLKGGAAAGGSGSTASSGSGSATGGGGAATHTCPPC
B5: IP401 (protein)
chain: B4 chain with F6H, L9D, F10L
B6: IP321 (protein)
chain: YSEGTFISDYSIAMDKIHQQDFVNWLLAGGAAAGGSGSTASSGSGSATGGGGAATHTCPPC

molecular target: T1, rat GIP receptor (rGIPr); assay: BSA-cAMP assay, cells expressing rat GIP receptor; format: cell-based; conditions: BSA-cAMP assay; read-out: cAMP activity rGIPr (EC50)
Experimental: (§1) One basic cAMP assays was performed, differing in the medium used for the assay, the “BSA-cAMP assay”:
(§2) BSA-based assay medium: 0.1% bovine serum albumin (BSA) in
(§3) In certain aspects, the assay can also be carried out in medium supplemented with serum albumin that corresponds to the receptor being tested, e.g., human serum albumin for testing cAMP activity at hGIPr or hGLP-1r, rat serum albumin for testing cAMP activity at rGIPr or rGLP-1r, and so on. […] All sample dilutions were made in duplicate.
(§4) A frozen cryo-vial of cells expressing the receptor of interest was thawed rapidly in a water-bath, transferred to pre-warmed assay media and spun at 240×g for 5 minutes. Cells were re-suspended in assay buffer at an optimized concentration (e.g., hGLP-1r and hGIPr cells at 0.5×10^5 cells/ml).
(§5) To this, 5 μL cell suspension was added and the plates incubated at room temperature for 30 minutes.
(§6) cAMP levels were measured using a commercially available cAMP dynamic 2 HTRF kit (Cisbio, Cat #62AM4PEJ), following the two step protocol as per manufacturer's recommendations. In brief; anti-cAMP cryptate (donor fluorophore) and cAMP-d2 (acceptor fluorophore) were made up separately by diluting each 1/20 in conjugate & lysis buffer provided in the kit. 5 μL anti-cAMP cryptate was added to all wells of the assay plate, and 5 μL cAMP-d2 added to all wells except non-specific binding (NSB) wells, to which conjugate and lysis buffer was added. […] Data was transformed to % Delta F as described in manufacturer's guidelines and then transformed to percent activation of maximal native agonist response and analysed by 4-parameter logistic fit to determine EC50 values.
(§7) We used unconstrained 4 parameter logistic fit of data, curve mid-point to determine EC50. This was tested on two occasions, not two batches.
(§8) In order to be able to carry out in vivo studies in rodents, IP088 was tested for potency against the mouse receptors mGIPr and mGLP-1r as well as the rat receptors rGIPr and rGLP-1r, using cells expressing the respective receptors in the cAMP assay described above.

EC50	Molecule
10 nM	B1
0.03 nM	B2

same assay, conditions: Batch 1; BSA-cAMP assay; read-out: rGIPr cAMP activity EC50

EC50	Molecule
0.0063 nM	B3
0.13 nM	B4
0.014 nM	B5
0.0079 nM	B6

molecular target: T6, human glucagon receptor (GCGr) (Homo sapiens, UniProt P47871); assay: BSA-cAMP assay, cells expressing human glucagon receptor; format: cell-based; conditions: Batch 1, read-out: hGCGr cAMP activity EC50
T6 construct: expressed in transfected cells; host or cells: HEK293s or CHO cells
T6 sequence (P47871 26-477): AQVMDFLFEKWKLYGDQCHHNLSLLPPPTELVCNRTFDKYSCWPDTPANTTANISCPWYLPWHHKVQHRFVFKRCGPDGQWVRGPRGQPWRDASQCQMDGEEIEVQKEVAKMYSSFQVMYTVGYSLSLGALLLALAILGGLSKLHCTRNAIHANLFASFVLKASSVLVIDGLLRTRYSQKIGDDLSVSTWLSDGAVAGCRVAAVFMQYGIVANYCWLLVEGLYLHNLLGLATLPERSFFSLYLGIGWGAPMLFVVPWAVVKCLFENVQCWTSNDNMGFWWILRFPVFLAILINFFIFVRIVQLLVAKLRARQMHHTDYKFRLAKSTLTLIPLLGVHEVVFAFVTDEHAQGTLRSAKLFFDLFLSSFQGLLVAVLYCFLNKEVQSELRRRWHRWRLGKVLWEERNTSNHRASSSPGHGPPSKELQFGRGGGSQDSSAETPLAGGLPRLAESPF
Experimental: as §1, §2, §3, §4, §5, §6, §7

EC50	Molecule
130 nM	B3
> 7430 nM	B4
3100 nM	B5
24 nM	B6

same assay, conditions: batch 1 unless a batch is given, read-out: cAMP activity hGCGr (EC50)

EC50	Molecule
> 1400 nM	B1
> 420 nM	B2

molecular target: T2, rat GLP-1 receptor (rGLP-1r); assay: BSA-cAMP assay, cells expressing rat GLP-1 receptor; format: cell-based; conditions: BSA-cAMP assay; read-out: cAMP activity rGLP1r (EC50)
Experimental: as §1, §2, §3, §4, §5, §6, §7, §8

EC50	Molecule
0.072 nM	B1
11 nM	B2

same assay, conditions: Batch 1; BSA-cAMP assay; read-out: rGLP1r cAMP activity EC50

EC50	Molecule
210 nM	B3
1.3 nM	B4
0.073 nM	B5
22 nM	B6

molecular target: T3, mouse GIP receptor (mGIPr); assay: BSA-cAMP assay, cells expressing mouse GIP receptor; format: cell-based; conditions: BSA-cAMP assay; read-out: cAMP activity mGIPr (EC50)
Experimental: as §1, §2, §3, §4, §5, §6, §7, §8

EC50	Molecule
260 nM	B1
2.3 nM	B2

same assay, conditions: Batch 1; BSA-cAMP assay; read-out: mGIPr cAMP activity EC50

EC50	Molecule
0.0098 nM	B3
0.55 nM	B4
3.6 nM	B5
0.017 nM	B6

molecular target: T7, human GLP-1 receptor (hGLP-1r) (Homo sapiens, UniProt P43220); assay: BSA-cAMP assay, cells expressing human GLP-1 receptor; format: cell-based; conditions: BSA-cAMP assay; batch 1 unless a batch is given; read-out: cAMP activity hGLP1r (EC50)
T7 construct: expressed in transfected cells
T7 sequence (P43220 24-463): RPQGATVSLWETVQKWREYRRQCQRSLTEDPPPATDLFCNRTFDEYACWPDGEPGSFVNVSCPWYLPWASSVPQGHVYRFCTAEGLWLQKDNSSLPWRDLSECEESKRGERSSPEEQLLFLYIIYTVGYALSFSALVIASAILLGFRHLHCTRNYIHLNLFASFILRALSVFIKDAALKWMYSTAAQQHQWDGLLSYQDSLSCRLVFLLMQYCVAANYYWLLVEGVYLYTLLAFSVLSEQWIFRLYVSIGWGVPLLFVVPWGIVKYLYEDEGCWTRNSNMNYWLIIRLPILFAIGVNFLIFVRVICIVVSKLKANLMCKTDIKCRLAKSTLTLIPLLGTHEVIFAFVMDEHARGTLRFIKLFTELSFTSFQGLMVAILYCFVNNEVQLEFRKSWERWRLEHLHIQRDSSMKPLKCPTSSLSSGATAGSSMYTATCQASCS
Summary of the method: (§9)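 EC50 came from an unconstrained 4-parameter logistic fit of HTRF cAMP data expressed as percent of maximal native agonist activation, tested on two occasions. Thawed receptor-expressing cells (hGLP-1r, hGIPr at 0.5×10^5 cells/ml) treated 30 min at room temperature in 0.1% BSA-containing medium; two distinct hGIPr lines.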

EC50	Molecule
0.65 nM	B1
63 nM	B2

same assay, conditions: Batch 1; BSA-cAMP assay; read-out: hGLP1r cAMP activity EC50

EC50	Molecule
110 nM	B3
2.4 nM	B4
0.35 nM	B5
72 nM	B6

molecular target: T4, mouse GLP-1 receptor (mGLP-1r); assay: BSA-cAMP assay, cells expressing mouse GLP-1 receptor; format: cell-based; conditions: BSA-cAMP assay; read-out: cAMP activity mGLP1r (EC50)
Experimental: as §1, §2, §3, §4, §5, §6, §7, §8

EC50	Molecule
3.2 nM	B1
280 nM	B2

same assay, conditions: Batch 1; BSA-cAMP assay; read-out: mGLP1r cAMP activity EC50

EC50	Molecule
820 nM	B3
21 nM	B4
13 nM	B5
330 nM	B6

molecular target: T5, human GIP receptor (hGIPr); assay: BSA-cAMP assay, cells expressing human GIP receptor; format: cell-based; conditions: BSA-cAMP assay; batch 1 unless a batch is given; read-out: cAMP activity hGIPr (EC50)
Summary of the method: as §9

EC50	Molecule
2.2 nM	B1
0.019 nM	B2

same assay, conditions: Batch 1; BSA-cAMP assay; read-out: hGIPr cAMP activity EC50

EC50	Molecule
0.0036 nM	B3
0.083 nM	B4
3.5 nM	B5
0.0096 nM	B6
